A short description of the data set: label from the status in PepcDB records.
Consider “MIYFIRKKKWLKQLEKGEAMKYAILIGDGMADYPIEKLGNRTILQAARTPAMDSIAARGRAGLAKTVPDSFPPGSDVANMSILGYDPATYYSGRAPLEAASMGVALAADDVAFRCNLITTEHGMIKDYSAGHISSDEAEILIDTLDYELSTENIRFYPGISYRHLIVAGNNLGAETECTPPHDITGEKIDKYLPRGKDGEFFSELIEASKVVLELHPVNLKRVEEGKNPANSIWVWGQGYAPKFTAFMKLYGKKGAVISAVDLLKGIGIYAGLDVIEVHGATGYLDTNYEGKVRAAIEALKTRDLVFVHVEAPDEAGHEGSIEKKLKAVEDFDSRIVAPILEYAENSDEPFTILVLPDHPTPISVKTHTRDPIPFAIYRTDKPETDNVEAFDEESVKNGSMGLVKASDLIGILIKS”, for which the protein production result is recorded as “failed”.

Consider “MEISSGGSGMATRARGVVRDGTRALVLAVVGLPGALVLYVLAVVSLLLVPLGVGIVTTPWVLAGVRGFADWRRVVAAEWCGVRIPSGYRPVPVDANPWGRCFRLLSDRATWRDLIWLQVDMTAGFVTALLPAALLFYPLEGFALAAGLWRVFTDGTYIGWWYAFVPVSGQASALAAGALGVVFLVASYHLTPSLLRVHFLLTRAVLAPGQGELAERVRVLTETRRAAVDTSAAELRRIERDLHDGAQARLVAMGMDLGTIEALIEKDPAKARELLARARKSSADALTELRDLVRGIHPPVLAERGLGDAVRALALRVPIASEVNVDFDGRRAAAPVESAAYFAVSEVLTNAVKHAGADRVWIDLRHSDGMLRIAVTDNGRGGARIGTGSGLAGIERRLGTFDGVLAVSSPAGGPTMVSLEIPCELS”, for which the protein production entry was “failed”.

For the sequence “MQKKNFWQIYFGKDPFSKAEFIKAWIGWWVIAIVLLGVLSICTSLNLRGIGIALGFGFCQIHARYLTFVGWNKFIGVLGVFPVTNIILFIVLLFTKKK”, the protein production result is “failed”.

In the case of “MAPKDITFVERCYKYIDMNKNNWSPYTVTSTKSWVKNYIEPFFKNLKLTEVNPSSVQAFVNYNFNNSTFTSAKVRYSFLSSVIREAYRLREIQENSCDFIKLPLEHHHHHH”, the protein production result is on record as “not failed”.

“MKKYFLKCGYFLVCFCLPLIVFANPKTDNERFFIRLSQAPLAQTLEQLAFQQDVNLVIGDILENKISLKLNNIDMPRLLQIIAKSKHLTLNKDDGIYYLNGSQSGKGQVAGNLTTNEPHLVSHTVKLHFAKASELMKSLTTGSGSLLSPAGSITFDDRSNLLVIQDEPRSVQNIKKLIAEMDKPIEQIAIEARIVTITDESLKELGVRWGIFNPTENARRVAGSLTGNSFENIADNLNVNFATTTTPAGSIALQVAKINGRLLDLELSALERENNVEIIASPRLLTTNKKSASIKQGTEIPYIVSNTRNDTQSVEFREAVLGLEVTPHISKDNNILLDLLVSQNSPGSRVAYGQNEVVSIDKQEINTQVFAKDGETIVLGGVFHDTITKSEDKVPLLGDIPVIKRLFSKESERHQKRELVIFVTPHILKAGETLEALKQKSEGKKLEHHHHHH”: the protein production result was “failed”.

For “MSSVPSAGQVRRRRVFYIPGYDPIHPRRYRELYRKESAEQARISGYSVTLKPKTTKGPYGWHVRSEQDGAEVAADVEVLVWSDIVRGSMSNTIPATYAQLARTAWTYIASGVLWRLMRLRKGPVIAALYPVGMLLAQLFAALFLVWLGWRLGGLTGWPLAALAGMGVGAGAGVYLLRWFRSKDGTFFAYYLMHDYAYSARWRGANPPELEARIGDFAERIAGALASDADEVLVVGHSSGAHVGVSVLADLIRAGRVPADGPALGFLTLGQVVPMVSFLPEAQRLRADLHYLCTRDELAWVDVSAPGDGCAFALCDPVSVSGVAPATGKRWPLVLSAAFTKTLSPARWAELRWRFFRLHFQYLCAFDQVGDYDYFRITAGPQTLAARYRDRAPSKSRIERAVSKYTDMGAS”, the protein production result is given as “failed”.

For the sequence “MDAREWAMLIALSLLWGGSFFFIGVAVKELPPVTIVTLRVSLAAVALLVVCRIMGLRLPREWAVWRAFFGMGLLNNIIPFCLIVWGQTQIASGLASILNATTPLFTVIVAHFLTADEKMTGNKLAGVLIGFVGVATMIGPAAFGGSSGLWGQIAILGAAISYSFAGIFGRRFKAMGVPPLMTATGQISSSTLMLIPAALLIDKPWTLAMPGLGTWGALIGIALLSTALAYLIFFRILASAGATNLALVTFLIPVSAILLGSLILGEQLEIKHFAGMAMIAAGLAAIDGRLPVKLRSLLRNAPA”, the protein production result is recorded as “failed”.

With “MTDWIQNLMDSMGYLGILLLMVLENVFPPIPSELIMPSAGFAAARGDMSLGMVVLMGTLGSVIGTLPLYYIGRAFGEDKLVAWADKHGKWLTLSGKDIKKADAWFDRYGAGAVLFGRMVPGIRSLLSLPAGMSEMPLPKFLIYSAIGSALWSAALAYAGYALGENYDRVEQYVAPVSKVIVGLLVIGAAAWFIRRKREQGSRTGG”, the protein production result is “failed”.

On to “MKIKFKRLDYQEQCRDQILGVFKGIDLKEPENDAQRISNPVFEIGAIKDLLLENIENLRSKQKITQGSVGIDKSLNCDILMETGTGKTFCFLECVYALHKNHHLSKFIVLTPSNAIKLGVLKSVEITREFFKSEYSNTHLESYEDIERFILASNHKCCVLVMTFSAFNKEKNTINKSCLENTNLFNGATSYMQALVSMRPIVIMDEPHRFLGDKTKKYLEQLNALLTLRFGATFKDDYNNLIYTLDSKKAFDCALVKSISVASVGESNECFLELKGIEKKEAAINYTDLENKTQSVKVKEHDNLGVVTQISALEDYIVEKITKTEIRFLNGFNLLLDQKEPFSHLLEGEQEVMLKEAIKSHFEREEGLFKKGIKALCMVFISGVNSYLSENEKPAKLALLFEKLYQQKLEEVLKKPLDENYRAYLECTREDIKKVHGGYFAKSKKEGDETKTIELILKEKEKLLSFDSDLRFIFSQWALQEGWDNPNVMTICKLAPSHSNITKLQQIGRGLRLAVNDKGERITKEHADFDFVNELVVIVPQVEGDFVGAIQQEISEHSLIKQEFSAEELEKSGVVKKGRYGFLLETLEGLGFGEKTGDENFKLTLNQNEFLEKEPELEKLKDEKYLDFEKLKDFLKDRLIGNSRVRDKNERKSEKIKINKENFKKFETLWESLNHQARIAYAIDSESLIDEIVKNINSSFNVSSKIVSVTTHKKVETMGNNAKTEIFERENACVWSLHEFISALSNKVKLSFKSVAKVLENIDENKFNEIKKNEQEGLRRLEELFLEIIYQNIKDKISYQMRETTIKNRKNDAFYDEKGEIREFLDGSLGADKYEIKNSSVREKCLYENFMQVDSEIEKDTIEESNDTKIIVFGKLPRVKIPIGLNQTYSPDFGYVVENNDKKVLLVVETKGVDKKSELRPEEERKISTAKKFFEALKKQGVNIEYKTKMEKDQLSALINEVLNRKD”, for which the protein production entry is given as “failed”.

On to “MKFAFVFPGQGSQSVGMLNAFADVAVVRETLDEASDALGQDIGKLIADGPADELNLTTNTQPVMLTAAYACYRAWQQAGGAQPSIVAGHSLGEYTALVAAGAIAFRDALPLVRFRAQAMQTAVPVGVGGMAAILGLDDDTVRAVCAEASATGVVEAVNFNAPAQVVIAGTKAGIEKACEIAKEKGAKRALPLPVSAPFHSSLLKPASDKLREYLAGVDVKAPKISVVNNIDVAVVSDPAAIKDALVRQAAGPVRWVECVQHIAREGVTHVIECGPGKVLAGLTKRIDGNLVGASVFDPASLDEALKLAAA”, for which the protein production result is reported as “not failed”.

Regarding “MGNRSTADADGLLAGRGPAAGASAGASAGLAGQGAAALVGGVLLIGAVLAGNSLVCVSVATERALQTPTNSFIVSLAAADLLLALLVLPLFVYSEVQGGAWLLSPRLCDALMAMDVMLCTASIFNLCAISVDRFVAVAVPLRYNRQGGSRRQLLLIGATWLLSAAVAAPVLCGLNDVRGRDPAVCRLEDRDYVVYSSVCSFFLPCPLMLLLYWATFRGLQRWEVARRAKLHGRAPRRPSGPGPPSPTPPAPRLPQDPCGPDCAPPAPGLPRGPCGPDCAPAAPGLPPDPCGPDCAPPAPGLPQDPCGPDCAPPAPGLPRGPCGPDCAPPAPGLPQDPCGPDCAPPAPGLPPDPCGSNCAPPDAVRAAALPPQTPPQTRRRRRAKITGRERKAMRVLPVVVGAFLLCWTPFFVVHITQALCPACSVPPRLVSAVTWLGYVNSALNPVIYTVFNAEFRNVFRKALRACC”, the protein production result is on record as “failed”.

With “SSEQIRRAPKVLLHDHLDGGLRPGTIVELARDAGYSGLPETDPDKLGIWFREAADSGSLERYLETFAHTCAVMQTRAALVRVAAECAEDLAADGVVYAEVRYAPEQHLEAGLSLEEVVEAVNEGFRAGERRAKEDGNRIRVGALLTAMRHAARALEIAELANRYRDAGVVGFDIAGAEAGFPPTRHLDAFEYLKRENNHFTIHAGEAFGLPSIWQALQWCGADRLGHGVRIIDDIQVREDGSVKLGRLASYVRDKRIPLELCPSSNLQTGAASSYADHPIGLLRRLHFRATVNTDNRLMSGTSMSREFEHLVDAFGYTLDDMAWFSVNAMKSAFIPFDERLAMINDV”, the protein production result was “failed”.

Take “MSLKYKLIVLDLDGTLTNSKKEISSRNRETLIRIQEQGIRLVLASGRPTYGIVPLANELRMNEFGGFILSYNGGEIINWESKEMMYENVLPNEVVPVLYECARTNHLSILTYDGAEIVTENSLDPYVQKEAFLNKMAIRETNDFLTDITLPVAKCLIVGDAGKLIPVESELCIRLQGKINVFRSEPYFLELVPQGIDKALSLSVLLENIGMTREEVIAIGDGYNDLSMIKFAGMGVAMGNAQEPVKKAADYITLTNDEDGVAEAIERIFNVEGHHHHHH”: the protein production entry is on record as “not failed”.

On to “MSLEGFICKFNRKRRLYIENIMQVRVTGILIEDEKVLLVKQKVANRDWSLPGGRVENGETLEEAMIREMREETGLEVKIKKLLYVCDKPDASPSLLHITFLLERIEGEITLPSNEFDHNPIHDVQMVPINELSYYGFSETFINLISGGLANAGSYQGLKRNIGEGHHHHHH”, for which the protein production entry is listed as “not failed”.

For the sequence “MQRISVIVPMYNEARHITRTLDSVLRAARAATLDCELIVVDNGSTDQGPQRARELGARVLLCPGIGIGALRNRGAAVATGDSLAFLDADIEVPGNWLQLWQQAHAEQRAEVFALDCAAPASAPWFARAWQRRSLAGDPQPRLLPWMPTPNLCLQRAWFERVGGFNEQLRTGEDKDFGLRLHAAGARQLSLPQPQVLHWGYEASWAEWAGKERWRQGSHVQLLKGSGLSLRLLRFPLLCLACALLSLVALLCLLAGLPGAAGLCLLLGALAPLALAVRQGLRQRDPLFVLQLWLLHWVRLHLGALALVQALFNRSAERPDRG”, the protein production result is “failed”.

As to “MGHHHHHHSHMVDRLQSEPESIRKWREEQMERLEALDANSRKQEAEWKEKAIKELEEWYARQDEQLQKTKANNRVADEAFYKQPFADVIGYVTNINHPCYSLEQAAEEAFVNDIDESSPGTEWERVARLCDFNPKSS”, the protein production result is on record as “not failed”.

In the case of “MVPRVPQPGIWCPAVTFFDSKTDTLDLASQERYYAYLARSGLTGLVILGTNAEAFLLTREERAQLIATARKAVGPDFPIMAGVGAHSTRQVLEHINDASVAGANYVLVLPPAYFGKATTPPVIKSFFDDVSCQSPLPVVIYNFPGVCNGIDLDSDMITTIARKNPNVVGVKLTCASVGKITRLAATLPPAAFSVFGGQSDFLIGGLSVGSAGCIAAFANVFPKTVSKIYELYKAGKVDQAMELHRKAALAESPCKSGIATTKYAAAIFSAKAAGIEDAEEKLRPRKPYDPPSEAAKQEVRKVMAEVAAIEAGLS”, the protein production result is “not failed”.

With “DDSLGEAVTTRAEALTIPAVLRARNLLSTTVARTPLVCDGTLPPFVPVAAPPGAATMQTPFHRMLATADDLLFNGVACWALDRDESGTCIGAIHIPLDTWQIEENTVRVNGKAVDPMEVCIFVGIHGGLLTHASETFTDARNLVRAAARVAQNPAALIELRQTNNAQLSPDDVDRIINGYVAARRGRNSGVGFSSSGLEVHEHEMAKENLLIEGRNAAAVDVARAMNVPAAFIDATVGGTSLSYQNAASRMIELVTFGVEPLMSAIEARLNQPDMHADHLANPLKFDPAALLDAIPTTPTIGAQPHGENS”, the protein production result is listed as “not failed”.

For the origin of these results see a protein production outcome set (Wang et al. 2014).
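Further: failed if final PepcDB status was selected cloned or expressed and not failed if soluble or beyond.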
